Reference: patent publication US20260327578A1, “TRANSGLUTAMINASES AND USES THEREOF” (CURIE CO. INC., priority 2023, published 2026)

Experiments:
collagen = test: Collagen-modifying activity with FITC-gelatin or FITC-cadaverine; assay type: biochemical; details: 16 hours, pH 7.4
Method: Substrate specificity for collagen of Tgase variant A3 (SEQ ID NO: 4) was tested by allowing the variant to react with either fluorescein-labeled gelatin (FITC-Gelatin, to test protein-protein cross-linking) or fluorescein-labeled cadaverine (FITC-cadaverine, to test protein-small molecule cross-linking) with a collagen layer deposited on the bottom of a 96-well microtiter plate. Tgase variant A3 (SEQ ID NO: 4) and wild-type Tgase were diluted to 4-800 ppm in 50 mM phosphate buffer, pH 7.4, supplemented with 100 mM NaCl in 96-well collagen coated microtiter plates. Either FITC-gelatin or FITC-cadaverine was added to 1 g/L (final volume 100 μL) and the plates were sealed and incubated at either 37° C. or 50° C. for 16 hours. The reaction supernatants were carefully removed and then 200 μL 50 mM [COMPOUND LEFT OUT] mM NaCl, pH 7.4 buffer was added gently against the side of each well then carefully removed. This wash step was repeated. The plate-bound material was extracted by vigorously pipetting 100 μL dimethylsulfoxide into each well, then the extract was transferred into a black bottom 96-well plate. The fluorescence of the samples was measured at an excitation wavelength of 487 nm and an emission wavelength of 528 nm. The fluorescence signal is assumed to be proportionate to the concentration of fluorescent product extracted from the surface of the plate. For both FITC-gelatin and FITC-cadaverine, the fluorescence response per concentration enzyme was higher for wells treated with Tgase variant A3 (SEQ ID NO: 4) than for wells treated with wild-type Tgase (Table 11).

N,N-dimethylcasein = test: Rate of product formation over 60 minutes (protein functionalization assay); assay type: biochemical; set-up: key: −: a reduction in activity; +: an improvement between 1.2 and 2-fold; ++: an improvement between 2 and 5-fold; +++: an improvement greater than 5-fold; details: improvement relative to wild-type Tgase (SEQ ID NO: 2); initial rate over 60 min
Method in brief: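 S. mobaraensis Tgase variants from cell-free reactions were diluted 10-fold in phosphate buffer pH 7.4, with enzyme loading set so enzyme was rate-limiting. Monodansylcadaverine coupling to N,N-dimethylcasein was followed by fluorescence (ex 332/em 500 nm), read every 60 s over 60 min. Initial rate was scored as fold improvement over wild-type.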

B1: A3: Tgase variant S2P Q50S Q74A K91H Q124L K151R K152R N282M G283A relative to SEQ ID NO: 2 (protein, UniProt P81453 77-407, looked up, variant S2P Q50S Q74A K91H Q124L K151R K152R N282M G283A)
Protein-glutamine …: DPDDRVTPPAEPLDRMPDPYRPSYGRAETVVNNYIRKWQQVYSHRDGRKSQMTEEQREWLSYGCVGVTWVNSGAYPTNRLAFASFDEDRFHNELKNGRPRSGETRAEFEGRVAKESFDEEKGFLRAREVASVMNRALENAHDESAYLDNLRRELANGNDALRNEDARSPFYSALRNTPSFKERNGGNHDPSRMKAVIYSKHFWSGQDRSSSADKRKYGDPDAFRPAPGTGLVDMSRDRNIPRSPTSPGEGFVNFDYGWFGAQTEADADKTVWTHGNHYHAPMASLGAMHVYESKFRNWSEGYSDFDRGAYVITFIPKSWNTAPDKVKQGWP
How did the “Fluorescence/[Enzyme]” value (collagen; FITC-Cadaverine, 37 °C) turn out when B1 was run?
Its value is 20.3 RFU/ppm.

What about the “Fluorescence/[Enzyme]” value (collagen; FITC-Cadaverine, 50 °C) of the same molecule?
Its value is 182.2 RFU/ppm.

What about the “Fluorescence/[Enzyme]” value (collagen; FITC-Gelatin, 37 °C) of the same molecule?
Its value is 8.4 RFU/ppm.

What about the “Fluorescence/[Enzyme]” value (collagen; FITC-Gelatin, 50 °C) of the same molecule?
The value was 36.9 RFU/ppm.

What about the Rate (N,N-dimethylcasein) of the same molecule?
The Rate was “−”.
